Experimental data published in patent publication US20170298146A1 (MODIQUEST B V, published 2017).
Non-standard residues stand in square brackets, D forms with d. No end group written: not given here. Cit = NC(=O)NCCC[C@H](N)C(=O)O

Tests used:
[1] = target: T1, huPAD4 deiminated human recombinant histone H2A (human); assay: ELISA, 0.00064 ug/well
T1 construct: also called H2A/p4; huPAD4 deiminated histone 2A
Description: (§1) CFC-1 and CFC-0 were coated at the same concentration and served as positive and negative controls, respectively, for specific anti-citrulline reactivity and as coating controls. Non-coated wells were used to test for aspecific binding of the antibodies. […] Detection of bound anti-citrulline antibodies was performed by incubating the wells with rabbit-anti-human-HRP (1:2000) for one hour at RT followed by incubation with TMB substrate. The resulting OD (y-axis) is a measure for antibody binding. H1=recombinant histone 1; H1/p2=huPAD2 recombinant histone 1; H1/p4=huPAD4 recombinant histone 1 and so forth (x-axis).

[2] = target: T2, huPAD2 deiminated human recombinant histone H2A (human); assay: ELISA, 0.00064 ug/well
T2 construct: also called H2A/p2
Description: as §1

[3] = target: human recombinant histone H4 (human, UniProt P62805 2-103); assay: ELISA, 0.00064 ug/well
Description: as §1

CFC-1 [4] = target: T3, CFC-1; assay: ELISA, 0.00064 ug/well
T3 construct: Positive control for anti-citrulline reactivity; also called cfc1 XG
Description: as §1

[5] = target: T4, human recombinant histone H2A (human); assay: ELISA, 0.00064 ug/well
T4 construct: Non-deiminated
Description: as §1

[6] = target: T5, huPAD4 deiminated human recombinant histone H2B (human); assay: ELISA, 0.00064 ug/well
T5 construct: also called H2B/p4
Description: as §1

[7] = target: T6, huPAD2 deiminated human recombinant histone H2B (human); assay: ELISA, 0.00064 ug/well
T6 construct: also called H2B/p2
Description: as §1

[8] = target: T7, human recombinant histone H2B (human); assay: ELISA, 0.00064 ug/well
T7 construct: Non-deiminated
Description: as §1

[9] = target: T8, Histone 2A citrulline-containing peptide 6 (human, also: biotin label); assay: peptide ELISA, 0.016 ug/well
T8 peptide: VHRLL[Cit]KGNYSE
Description: as §1, with “Biotin and citrulline-containing peptides derived from histone 2A were immobilized on NEUTRAVIDIN®-coated 96-well ELISA plates (0.3 μg/well). CFC-1” for “CFC-1”, “controls respectively” for “controls, respectively,”, “binding.” for “binding. H1=recombinant histone 1; H1/p2=huPAD2 recombinant histone 1; H1/p4=huPAD4 recombinant histone 1 and so forth (x-axis).”
(§2) Ninety-six-well ELISA plates were coated with NEUTRAVIDIN® (0.1 μg/well) by overnight incubation at 4° C. Wells were washed five times with PBS-TWEEN®-20 (PBS-T) and blocked by a one-hour incubation with PBS-T+1% Bovine serum albumin (BSA) at room temperature (RT). After five more washes with PBS-T, wells were incubated for one hour at RT with histone-derived citrulline and biotin-containing peptides (0.3 μg/well). […] Wells were washed five times with PBS-T and incubated with rabbit-anti-human-HRP (1:2000) for one hour at RT followed by five washes with PBS-T and three wash steps with PBS. Wells were incubated for five minutes with TMB substrate before stopping the reaction with 2 M H₂SO₄. Optical density was measured by 450 nm and is a measure for the affinity of the antibodies used.

[10] = target: T9, Histone 2A citrulline-containing peptide 4 (human, also: biotin label); assay: peptide ELISA, 0.016 ug/well
T9 peptide: QFPVG[Cit]VHRLLR
Description: as §1, with “Biotin and citrulline-containing peptides derived from histone 2A were immobilized on NEUTRAVIDIN®-coated 96-well ELISA plates (0.3 μg/well). CFC-1” for “CFC-1”, “controls respectively” for “controls, respectively,”, “binding.” for “binding. H1=recombinant histone 1; H1/p2=huPAD2 recombinant histone 1; H1/p4=huPAD4 recombinant histone 1 and so forth (x-axis).”
as §2

[11] = target: T10, Histone 2A citrulline-containing peptide 11 (human, also: biotin label); assay: peptide ELISA, 0.016 ug/well
T10 peptide: LQLAI[Cit]NDEELN
Description: as §1, with “Biotin and citrulline-containing peptides derived from histone 2A were immobilized on NEUTRAVIDIN®-coated 96-well ELISA plates (0.3 μg/well). CFC-1” for “CFC-1”, “controls respectively” for “controls, respectively,”, “binding.” for “binding. H1=recombinant histone 1; H1/p2=huPAD2 recombinant histone 1; H1/p4=huPAD4 recombinant histone 1 and so forth (x-axis).”
as §2

[12] = target: T11, Histone 2A citrulline-containing peptide 3 (human, also: biotin label); assay: peptide ELISA, 0.016 ug/well
T11 peptide: KSRSS[Cit]AGLQFP
Description: as §1, with “Biotin and citrulline-containing peptides derived from histone 2A were immobilized on NEUTRAVIDIN®-coated 96-well ELISA plates (0.3 μg/well). CFC-1” for “CFC-1”, “controls respectively” for “controls, respectively,”, “binding.” for “binding. H1=recombinant histone 1; H1/p2=huPAD2 recombinant histone 1; H1/p4=huPAD4 recombinant histone 1 and so forth (x-axis).”
as §2

[13] = target: T12, Histone 2A citrulline-containing peptide 10 (human, also: biotin label); assay: peptide ELISA, 0.016 ug/well
T12 peptide: TRIIP[Cit]HLQLAI
Description: as §1, with “Biotin and citrulline-containing peptides derived from histone 2A were immobilized on NEUTRAVIDIN®-coated 96-well ELISA plates (0.3 μg/well). CFC-1” for “CFC-1”, “controls respectively” for “controls, respectively,”, “binding.” for “binding. H1=recombinant histone 1; H1/p2=huPAD2 recombinant histone 1; H1/p4=huPAD4 recombinant histone 1 and so forth (x-axis).”
as §2

[14] = target: T13, Histone 2A citrulline-containing peptide 1 (human, also: biotin label); assay: peptide ELISA, 0.016 ug/well
T13 construct: also called AAASGXGKQGGK
T13 peptide: AAASG[Cit]GKQGGK
Description: as §1, with “Biotin and citrulline-containing peptides derived from histone 2A were immobilized on NEUTRAVIDIN®-coated 96-well ELISA plates (0.3 μg/well). CFC-1” for “CFC-1”, “controls respectively” for “controls, respectively,”, “binding.” for “binding. H1=recombinant histone 1; H1/p2=huPAD2 recombinant histone 1; H1/p4=huPAD4 recombinant histone 1 and so forth (x-axis).”
as §2

[15] = target: T14, Histone 2A citrulline-containing peptide 5 (human, also: biotin label); assay: peptide ELISA, 0.016 ug/well
T14 peptide: VGRVH[Cit]LLRKGN
Description: as §1, with “Biotin and citrulline-containing peptides derived from histone 2A were immobilized on NEUTRAVIDIN®-coated 96-well ELISA plates (0.3 μg/well). CFC-1” for “CFC-1”, “controls respectively” for “controls, respectively,”, “binding.” for “binding. H1=recombinant histone 1; H1/p2=huPAD2 recombinant histone 1; H1/p4=huPAD4 recombinant histone 1 and so forth (x-axis).”
as §2

[16] = target: T15, Histone 2A citrulline-containing peptide 8 (human, also: biotin label); assay: peptide ELISA, 0.016 ug/well
T15 peptide: AGNAA[Cit]DNKKTR
Description: as §1, with “Biotin and citrulline-containing peptides derived from histone 2A were immobilized on NEUTRAVIDIN®-coated 96-well ELISA plates (0.3 μg/well). CFC-1” for “CFC-1”, “controls respectively” for “controls, respectively,”, “binding.” for “binding. H1=recombinant histone 1; H1/p2=huPAD2 recombinant histone 1; H1/p4=huPAD4 recombinant histone 1 and so forth (x-axis).”
as §2

CFC-1 [17] = target: T3, CFC-1; assay: peptide ELISA, 0.016 ug/well
Description: as §1, with “Biotin and citrulline-containing peptides derived from histone 2A were immobilized on NEUTRAVIDIN®-coated 96-well ELISA plates (0.3 μg/well). CFC-1” for “CFC-1”, “controls respectively” for “controls, respectively,”, “binding.” for “binding. H1=recombinant histone 1; H1/p2=huPAD2 recombinant histone 1; H1/p4=huPAD4 recombinant histone 1 and so forth (x-axis).”
as §2

[18] = target: T16, Histone 2A citrulline-containing peptide 2 (human, also: biotin label); assay: peptide ELISA, 0.016 ug/well
T16 peptide: AKAKS[Cit]SSRAGL
Description: as §1, with “Biotin and citrulline-containing peptides derived from histone 2A were immobilized on NEUTRAVIDIN®-coated 96-well ELISA plates (0.3 μg/well). CFC-1” for “CFC-1”, “controls respectively” for “controls, respectively,”, “binding.” for “binding. H1=recombinant histone 1; H1/p2=huPAD2 recombinant histone 1; H1/p4=huPAD4 recombinant histone 1 and so forth (x-axis).”
as §2

[19] = target: T17, Histone 2A citrulline-containing peptide 9 (human, also: biotin label); assay: peptide ELISA, 0.016 ug/well
T17 peptide: DNKKT[Cit]IIPRHL
Description: as §1, with “Biotin and citrulline-containing peptides derived from histone 2A were immobilized on NEUTRAVIDIN®-coated 96-well ELISA plates (0.3 μg/well). CFC-1” for “CFC-1”, “controls respectively” for “controls, respectively,”, “binding.” for “binding. H1=recombinant histone 1; H1/p2=huPAD2 recombinant histone 1; H1/p4=huPAD4 recombinant histone 1 and so forth (x-axis).”
as §2

[20] = target: T18, Histone 2A citrulline-containing peptide 12 (human, also: biotin label); assay: peptide ELISA, 0.016 ug/well
T18 peptide: NKLLG[Cit]VTIAQG
Description: as §1, with “Biotin and citrulline-containing peptides derived from histone 2A were immobilized on NEUTRAVIDIN®-coated 96-well ELISA plates (0.3 μg/well). CFC-1” for “CFC-1”, “controls respectively” for “controls, respectively,”, “binding.” for “binding. H1=recombinant histone 1; H1/p2=huPAD2 recombinant histone 1; H1/p4=huPAD4 recombinant histone 1 and so forth (x-axis).”
as §2

[21] = target: T19, Histone 2A citrulline-containing peptide 7 (human, also: biotin label); assay: peptide ELISA, 0.016 ug/well
T19 peptide: GNYSE[Cit]VGAGAP
Description: as §1, with “Biotin and citrulline-containing peptides derived from histone 2A were immobilized on NEUTRAVIDIN®-coated 96-well ELISA plates (0.3 μg/well). CFC-1” for “CFC-1”, “controls respectively” for “controls, respectively,”, “binding.” for “binding. H1=recombinant histone 1; H1/p2=huPAD2 recombinant histone 1; H1/p4=huPAD4 recombinant histone 1 and so forth (x-axis).”
as §2

[22] = target: T1, huPAD4 deiminated human recombinant …; assay: ELISA, 0.08 ug/well
Description: as §1

[23] = target: T2, huPAD2 deiminated human recombinant …; assay: ELISA, 0.08 ug/well
Description: as §1

[24] = target: T20, huPAD4 deiminated human recombinant histone H3 (human); assay: ELISA, 0.08 ug/well
T20 construct: also called H3/p4
Description: as §1

CFC-1 [25] = target: T3, CFC-1; assay: ELISA, 0.08 ug/well
Description: as §1

[26] = target: T4, human recombinant histone H2A; assay: ELISA, 0.08 ug/well
Description: as §1

[27] = target: T5, huPAD4 deiminated human recombinant …; assay: ELISA, 0.08 ug/well
Description: as §1

[28] = target: T6, huPAD2 deiminated human recombinant …; assay: ELISA, 0.08 ug/well
Description: as §1

[29] = target: T7, human recombinant histone H2B; assay: ELISA, 0.08 ug/well
Description: as §1

B1: RhmAb2.102 (antibody, human IgG1, lambda)
heavy: not shown
light: QSVLTQPPSMSAAPGQKVTISCSGSSSNIGNNYVSWYQQVPGTAPKLLIYDDNKRPSGIPGRFSGSKSATSATLGITGLQAGDEADYYCGSWDDNLSVVLFGGGTKLTVLGQPKAAPSVTLFPPSSEELQANKATLVCLISDFYPGAVTVAWKADSSPVKAGVETTTPSKQSNNKYAASSYLSLTPEQWKSHRSYSCQVTHEGSTVEKTVAPTECS
notes: Human IgG1 lambda; also called Rhm2.102
[1]
  OD: 0.075 OD
[2]
  OD: 0.077 OD
[3]
  OD: 0.06 OD
CFC-1 [4]
  OD: 0.077 OD
[5]
  OD: 0.057 OD
[6]
  OD: 0.055 OD
[7]
  OD: 0.052 OD
[8]
  OD: 0.052 OD
[9]
  OD: 0.075 OD
[10]
  OD: 0.084 OD
[11]
  OD: 0.069 OD
[12]
  OD: 0.07 OD
[13]
  OD: 0.066 OD
[14]
  OD: 0.843 OD
[15]
  OD: 0.065 OD
[16]
  OD: 0.063 OD
CFC-1 [17]
  OD: 1.46 OD
[18]
  OD: 0.065 OD
[19]
  OD: 0.064 OD
[20]
  OD: 0.057 OD
[21]
  OD: 0.061 OD
[22]
  OD: 1.75 OD
[23]
  OD: 1.96 OD
[24]
  OD: 0.093 OD
CFC-1 [25]
  OD: 2.15 OD
[26]
  OD: 0.06 OD
[27]
  OD: 0.052 OD
[28]
  OD: 0.053 OD
[29]
  OD: 0.054 OD
